From the supplement of paper PMC10201428 come the findings set out here.

± gives the standard deviation of the averaged measurements.

For data set [1], the system named is VchCAST RNA-guided transposition machinery (E. coli BL21(DE3) host, lacZ target). Description: relative integration efficiency (T-LR orientation) vs wild-type transposon end (log2 (normalized fold change)); transposon end mutated: right end (5 bp flank + 75 bp right end); higher = more efficient transposition. In outline:
(§1)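 Barcode abundances in input plasmids and in genomic integration junctions were obtained by PCR amplification and Illumina sequencing. These came from E. coli BL21(DE3) co-transformed with a T7-driven effector plasmid and a pUC57 donor carrying 1549 left-end or 1849 right-end transposon variants, then plated with 0.1 mM IPTG at 37°C for 18 h. Relative integration efficiency is the output/input fold change, normalised to reference barcodes and log-transformed.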

Data set [2] shares this test system. Nature of the data set: relative integration efficiency (T-RL orientation) vs wild-type transposon end (log2 (normalized fold change)); transposon end mutated: right end (5 bp flank + 75 bp right end); higher = more efficient transposition. In outline: as §1

For “ACATTTGTTGATACAACCATAAAAGGATAATTACCCCCATCAATTGATAATTATCACACCCAATTTAACTATAACGCTCTGATCATAGTCAGACCAACATTGCTACGACCCGTATTCGCACCGACAC”, the entries for the “relative integration efficiency (log2)” value in data set [1] and in data set [2] were -0.104 ± 0.42 and -2.86 ± 0.32, respectively.
“ACATTTGTTGATACAACCATAAAAGGATAATTACCCCCATCAATTGATAATTATCACACCCCATTTAACTATAACGCTCTGATCATAGTCAGACCAACATTGCTACGACCCGTATTCGCACCGACAC”: the “relative integration efficiency (log2)” value in data set [1] is -0.157 ± 0.13; in data set [2], -3.19 ± 0.27.
As for “ACATTTGTTGATACAACCATAAAAGGATAATTACCCCCATCAATTGATAATTATCCCACCCAATTTAACTATAACGCTCTGATCATAGTCAGACCAACATTGCTACGACCCGTATTCGCACCGACAC”, the “relative integration efficiency (log2)” value in data set [1] was 1.91 ± 0.034; in data set [2], -0.787 ± 0.53.
The matching figures for “ACATTTGTTGATACAACCATAAAAGGATAATTACCCCCATCAATTGATAATTATCCCACCCCATTTAACTATAACGCTCTGATCATAGTCAGACCAACATTGCTACGACCCGTATTCGCACCGACAC”: -0.233 ± 0.32 and -2.87 ± 0.26.
Consider “ACATTTGTTGATACAACCATAAAAGGATAATTCACCCATAAATTGATAATTATCACACCCACATTTAACTATAACGCTCTGATCATAGTCAGACCAACATTGCTACGACCCGTATTCGCACCGACAC”, for which the “relative integration efficiency (log2)” value was 0.902 ± 0.15 in data set [1] and -2.38 ± 0.38 in data set [2].
As to “ACATTTGTTGATACAACCATAAAAGGATAATTCACCCCTAAATTGATAATTATCACACCCACATTTAACTATAACGCTCTGATCATAGTCAGACCAACATTGCTACGACCCGTATTCGCACCGACAC”, the “relative integration efficiency (log2)” value is -0.705 ± 0.48 in data set [1] and -4.49 ± 0.25 in data set [2].
As to “ACATTTGTTGATACAACCATAAAAGGATCATTACACCCATAAATTGATAATTATCACACCCAATTTAACTATAACGCTCTGATCATAGTCAGACCAACATTGCTACGACCCGTATTCGCACCGACAC”, the “relative integration efficiency (log2)” value was 1.34 ± 0.27 in data set [1] and -2.03 ± 0.18 in data set [2].
The matching figures for “ACATTTGTTGATACAACCATAAAAGGATCATTACACCCATAAATTGATAATTATCACACCCCATTTAACTATAACGCTCTGATCATAGTCAGACCAACATTGCTACGACCCGTATTCGCACCGACAC”: 1.27 ± 0.23 and -2.29 ± 0.32.
With “ACATTTGTTGATACAACCATAAAAGGATCATTACACCCATAAATTGATAATTATCCCACCCAATTTAACTATAACGCTCTGATCATAGTCAGACCAACATTGCTACGACCCGTATTCGCACCGACAC”, the “relative integration efficiency (log2)” value is 1.75 ± 0.057 in data set [1] and -1.69 ± 0.47 in data set [2].
In the case of “ACATTTGTTGATACAACCATAAAAGGATCATTACACCCATAAATTGATAATTATCCCACCCCATTTAACTATAACGCTCTGATCATAGTCAGACCAACATTGCTACGACCCGTATTCGCACCGACAC”, the “relative integration efficiency (log2)” value in data set [1] was 1.38 ± 0.021; in data set [2], -2.12 ± 0.38.
In the case of “ACATTTGTTGATACAACCATAAAAGGATCATTACACCCATCAATTGATAATTATCACACCCAATTTAACTATAACGCTCTGATCATAGTCAGACCAACATTGCTACGACCCGTATTCGCACCGACAC”, the “relative integration efficiency (log2)” value in data set [1] is -0.241 ± 0.022; in data set [2], -3.44 ± 0.37.
Turning to “ACATTTGTTGATACAACCATAAAAGGATCATTACACCCATCAATTGATAATTATCACACCCCATTTAACTATAACGCTCTGATCATAGTCAGACCAACATTGCTACGACCCGTATTCGCACCGACAC”, the figures for the “relative integration efficiency (log2)” value in data set [1] and in data set [2] were 0.228 ± 0.13 and -3.25 ± 0.32, respectively.
Turning to “ACATTTGTTGATACAACCATAAAAGGATCATTACACCCATCAATTGATAATTATCCCACCCAATTTAACTATAACGCTCTGATCATAGTCAGACCAACATTGCTACGACCCGTATTCGCACCGACAC”, the “relative integration efficiency (log2)” value in data set [1] is 0.119 ± 0.061; in data set [2], -2.99 ± 0.16.
Regarding “ACATTTGTTGATACAACCATAAAAGGATCATTACACCCATCAATTGATAATTATCCCACCCCATTTAACTATAACGCTCTGATCATAGTCAGACCAACATTGCTACGACCCGTATTCGCACCGACAC”, the “relative integration efficiency (log2)” value in data set [1] is -0.014 ± 0.4; in data set [2], -3.29 ± 0.28.
As for “ACATTTGTTGATACAACCATAAAAGGATCATTACCCCCATAAATTGATAATTATCACACCCAATTTAACTATAACGCTCTGATCATAGTCAGACCAACATTGCTACGACCCGTATTCGCACCGACAC”, the entries for the “relative integration efficiency (log2)” value in data set [1] and in data set [2] were 0.679 ± 0.16 and -2.28 ± 0.24, respectively.
For the sequence “ACATTTGTTGATACAACCATAAAAGGATCATTACCCCCATAAATTGATAATTATCACACCCCATTTAACTATAACGCTCTGATCATAGTCAGACCAACATTGCTACGACCCGTATTCGCACCGACAC”, the “relative integration efficiency (log2)” value was 1.16 ± 0.12 in data set [1] and -2.55 ± 0.35 in data set [2].
On to “ACATTTGTTGATACAACCATAAAAGGATCATTACCCCCATAAATTGATAATTATCCCACCCAATTTAACTATAACGCTCTGATCATAGTCAGACCAACATTGCTACGACCCGTATTCGCACCGACAC”, for which the results for the “relative integration efficiency (log2)” value in data set [1] and in data set [2] were 0.912 ± 0.11 and -2.19 ± 0.29, respectively.
As to “ACATTTGTTGATACAACCATAAAAGGATCATTACCCCCATAAATTGATAATTATCCCACCCCATTTAACTATAACGCTCTGATCATAGTCAGACCAACATTGCTACGACCCGTATTCGCACCGACAC”, the “relative integration efficiency (log2)” value in data set [1] is 0.775 ± 0.15; in data set [2], -2.25 ± 0.25.
Take “ACATTTGTTGATACAACCATAAAAGGATCATTACCCCCATCAATTGATAATTATCACACCCAATTTAACTATAACGCTCTGATCATAGTCAGACCAACATTGCTACGACCCGTATTCGCACCGACAC”: the “relative integration efficiency (log2)” value in data set [1] was -1.13 ± 0.29; in data set [2], -4.48 ± 0.1.
For the sequence “ACATTTGTTGATACAACCATAAAAGGATCATTACCCCCATCAATTGATAATTATCACACCCCATTTAACTATAACGCTCTGATCATAGTCAGACCAACATTGCTACGACCCGTATTCGCACCGACAC”, the “relative integration efficiency (log2)” value is -1.38 ± 0.048 in data set [1] and -4.59 ± 0.85 in data set [2].
On to “ACATTTGTTGATACAACCATAAAAGGATCATTACCCCCATCAATTGATAATTATCCCACCCAATTTAACTATAACGCTCTGATCATAGTCAGACCAACATTGCTACGACCCGTATTCGCACCGACAC”, for which the “relative integration efficiency (log2)” value in data set [1] was -0.858 ± 0.08; in data set [2], -3.59 ± 0.36.
The matching figures for “ACATTTGTTGATACAACCATAAAAGGATCATTACCCCCATCAATTGATAATTATCCCACCCCATTTAACTATAACGCTCTGATCATAGTCAGACCAACATTGCTACGACCCGTATTCGCACCGACAC”: -1.31 ± 0.15 and -4.43 ± 0.28.
As for “ACATTTGTTGATACAACCATAAAAGGATCATTCACCCATAAATTGATAATTATCACACCCACATTTAACTATAACGCTCTGATCATAGTCAGACCAACATTGCTACGACCCGTATTCGCACCGACAC”, the “relative integration efficiency (log2)” value in data set [1] was -0.0129 ± 0.14; in data set [2] it was -3.13 ± 0.14.
The matching figures for “ACATTTGTTGATACAACCATAAAAGGATCATTCACCCCTAAATTGATAATTATCACACCCACATTTAACTATAACGCTCTGATCATAGTCAGACCAACATTGCTACGACCCGTATTCGCACCGACAC”: -1.36 ± 0.36 and -4.73 ± 0.18.
The matching figures for “ACATTTGTTGATACAACCATAAAAGGATTATTACACCCATTAATTGATAATTATCACACCCAATTTAACTATAACGCTCTGATCATAGTCAGACCAACATTGCTACGACCCGTATTCGCACCGACAC”: 1.27 ± 0.069 and -2.02 ± 0.28.
Take “ACATTTGTTGATACAACCATAAAAGTATAATTACACCCATAAATTGATAATTATCACACCCATAAATTGATATTGCCTCTGATCATAGTCAGACCAACATTGCTACGACCCGTATTCGCACCGACAC”: the entries for the “relative integration efficiency (log2)” value in data set [1] and in data set [2] were -0.606 ± 0.35 and -0.954 ± 0.16, respectively.
On to “ACATTTGTTGATACAACCATAAAAGTCGAATTACACCCATAAATTGATAATTATCACACCCATAAATTGATATTGCCTCTGATCATAGTCAGACCAACATTGCTACGACCCGTATTCGCACCGACAC”, for which the results for the “relative integration efficiency (log2)” value in data set [1] and in data set [2] were -3.24 ± 0.7 and -2.69 ± 0.26, respectively.
The matching figures for “ACATTTGTTGATACAACCATAAAAGTCGCCGGCACAAACGCCCGGTCGCCGGCGACACAAACGCCCGGTCGCGGTAAGAGGATCATAGTCAGACCAACATTGCTACGACCCGTATTCGCACCGACAC”: -2.61 ± 0.042 and -5.34 ± 0.34.
Take “ACATTTGTTGATACAACCATAAAATCATAATTACACCCATAAATTCATAATTATCACACCCATAAATTCATATTGCCTCTGATCATAGTCAGACCAACATTGCTACGACCCGTATTCGCACCGACAC”: the “relative integration efficiency (log2)” value in data set [1] was -1.52 ± 0.48; in data set [2], -4.92 ± 0.57.
For “ACATTTGTTGATACAACCATAAAATCATAATTACACCCATAAATTGATAATTATCACACCCCATTTAACTATAACGCTCTGATCATAGTCAGACCAACATTGCTACGACCCGTATTCGCACCGACAC”, the entries for the “relative integration efficiency (log2)” value in data set [1] and in data set [2] were 1.21 ± 0.17 and -2.85 ± 0.24, respectively.
The matching figures for “ACATTTGTTGATACAACCATAAAATCATAATTACACCCATAAATTGATAATTATCCCACCCAATTTAACTATAACGCTCTGATCATAGTCAGACCAACATTGCTACGACCCGTATTCGCACCGACAC”: 1.64 ± 0.041 and -2.19 ± 0.14.
With “ACATTTGTTGATACAACCATAAAATCATAATTACACCCATAAATTGATAATTATCCCACCCCATTTAACTATAACGCTCTGATCATAGTCAGACCAACATTGCTACGACCCGTATTCGCACCGACAC”, the “relative integration efficiency (log2)” value in data set [1] is 1.23 ± 0.046; in data set [2] it was -2.73 ± 0.22.
